# Source: patent US7727950
# T1: standard peptide substrate HMRSAMSGLHLVKRR
# T1 chain: HMRSAMSGLHLVKRR
# T2: generic peptide substrate RARTLSFAEPG
# T2 chain: RARTLSFAEPG
# T3: standard peptide substrate GRPRTSSFAEG
# T3 chain: GRPRTSSFAEG
# T4: generic peptide substrate KKLNRTLSFAEPG
# T4 chain: KKLNRTLSFAEPG
# T5: standard peptide substrate LRRASLG
# T5 chain: LRRASLG
# T6: generic peptide substrate RRRLSFAEPG
# T6 chain: RRRLSFAEPG
# T7: standard peptide substrate KEAKEKRQEQIAKRRRLSSLRASTSKSGGSQK
# T7 chain: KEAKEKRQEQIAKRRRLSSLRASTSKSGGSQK
# T8: standard peptide substrate KKLNRTLSVA
# T8 chain: KKLNRTLSVA
# T9: standard peptide substrate KKLRRTLSVA
# T9 chain: KKLRRTLSVA
# T10: standard peptide substrate KKKVSRSGLYRSPSMPENLNRPR
# T10 chain: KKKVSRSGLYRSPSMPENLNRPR
# Key:
# [1] = target: T1, standard peptide substrate …
# [2] = target: T2, generic peptide substrate RARTLSFAEPG
# [3] = target: T3, standard peptide substrate GRPRTSSFAEG
# [4] = target: T4, generic peptide substrate KKLNRTLSFAEPG
# [5] = target: T5, standard peptide substrate LRRASLG
# [6] = target: T6, generic peptide substrate RRRLSFAEPG
# [7] = target: T7, standard peptide substrate …
# [8] = target: T8, standard peptide substrate KKLNRTLSVA
# [9] = target: T9, standard peptide substrate KKLRRTLSVA
# [10] = target: T10, standard peptide substrate …
protein,measurement,setting,value
AMP-activated protein kinase (AMPK) (protein) MAEKQKHDGRVKIGHYVLGDTLGVGTFGKVKIGEHQLTGHKVAVKILNRQKIRSLDVVGKIKREIQNLKLFRHPHIIKLYQVISTPTDFFMVMEYVSGGELFDYICKHGRVEEVEARRLFQQILSAVDYCHRHMVVHRDLKPENVLLDAQMNAKIADFGLSNMMSDGEFLRTSCGSPNYAAPEVISGRLYAGPEVDIWSCGVILYALLCGTLPFDDEHVPTLFKKIRGGVFYIPEYLNRSIATLLMHMLQVDPLKRATIKDIREHEWFKQDLPSYLFPEDPSYDANVIDDEAVKEVCEKFECTESEVMNSLYSGDPQDQLAVAYHLIIDNRRIMNQASEFYLASSPPTGSFMDDMAMHIPPGLKPHPERMPPLIADSPKARCPLDALNTTKPKSLAVKKAKWHLGIRSQSKPYDIMAEVYRAMKQLDFEWKVVNAYHLRVRRKNPVTGNYVKMSLQLYLVDNRSYLLDFKSIDDEVVEQRSGSSTPQRSCSAAGLHRPRSSVDSSTAENHSLSGSLTGSLTGSTLSSASPRLGSHTMDFFEMCASLITALAR,Km,[1],80 µM
same,Km,[2],75 µM
protein kinase B alpha (PKBα) (protein) MDFRSGSPSDNSGAEEMEVSLAKPKHRVTMNEFEYLKLLGKGTFGKVILVKEKATGRYYAMKILKKEVIVAKDEVAHTLTENRVLQNSRHPFLTALKYSFQTHDRLCFVMEYANGGELFFHLSRERVFSEDRARFYGAEIVSALDYLHSEKNVVYRDLKLENLMLDKDGHIKITDFGLCKEGIKDGATMKTFCGTPEYLAPEVLEDNDYGRAVDWWGLGVVMYEMMCGRLPFYNQDHEKLFELILMEEIRFPRTLGPEAKSLLSGLLKKDPKQRLGGGSEDAKEIMQHRFFAGIVWQHVYEKKLSPPFKPQVTSETDTRYFDEEFTAQMITITPPDQDDSMECVDSERRPHFPQFSYSASGTA,Km,[3],4 µM
same,Km,[4],2 µM
serum and glucocorticoid-induced kinase 1 (SGK1[S422D] and lacking the N-terminal 59 residues) (protein) ISQPQEPELMNANPSPPPSPSQQINLGPSSNPHAKPSDFHFLKVIGKGSFGKVLLARHKAEEVFYAVKVLQKKAILKKKEEKHIMSERNVLLKNVKHPFLVGLHFSFQTADKLYFVLDYINGGELFYHLQRERCFLEPRARFYAAEIASALGYLHSLNIVYRDLKPENILLDSQGHIVLTDFGLCKENIEHNSTTSTFCGTPEYLAPEVLHKQPYDRTVDWWCLGAVLYEMLYGLPPFYSRNTAEMYDNILNKPLQLKPNITNSARHLLEGLLQKDRTKRLGAKDDFMEIKSHVFFSLINWDDLINKKITPPFNPNVSGPNDLRHFDPEFTEEPVPNSIGKSPDSVLVTASVKEAAEAFLGFDYAPPTDSFL,Km,[3],4 µM
same,Km,[4],4 µM
"p70 ribosomal S6 kinase 1 (S6K1[T412E], lacking the C-terminal 104 residues) (protein) MRRRRRRDGFYPAPDFRDREAEDMAGVFDIDLDQPEDAGSEDELEEGGQLNESMDHGGVGPYELGMEHCEKFEISETSVNRGPEKIRPECFELLRVLGKGGYGKVFQVRKVTGANTGKIFAMKVLKKAMIVRNAKDTAHTKAERNILEEVKHPFIVDLIYAFQTGGKLYLILEYLSGGELFMQLEREGIFMEDTACFYLAEISMALGHLHQKGIIYRDLKPENIMLNHQGHVKLTDFGLCKESIHDGTVTHTFCGTIEYMAPEILMRSGHNRAVDWWSLGALMYDMLTGAPPFTGENRKKTIDKILKCKLNLPPYLTQEARDLLKKLLKRNAASRLGAGPGDAGEVQAHPFFRHINWEELLARKVEPPFKPLLQSEEDVSQFDSKFTRQTPVDSPDDSTLSESANQVFLGFEYVAPSVLES",Km,[5],8 µM
same,Km,[4],6 µM
cGMP-dependent protein kinase (PKG) (protein) SELEEDFAKILMLKEERIKELEKRLSEKEEEIQELKRKLHKCQSVLPVPSTHIGPRTTRAQGISAEPQTYRSFHDLRQAFRKFTKSERSKDLIKEAILDNDFMKNLELSQIQEIVDCMYPVEYGKDSCIIKEGDVGSLVYVMEDGKVEVTKEGVKLCTMGPGKVFGELAILYNCTRTATVKTLVNVKLWAIDRQCFQTIMMRTGLIKHTEYMEFLKSVPTFQSLPEEILSKLADVLEETHYENGEYIIRQGARGDTFFIISKGKVNVTREDSPNEDPVFLRTLGKGDWFGEKALQGEDVRTANVIAAEAVTCLVIDRDSFKHLIGGLDDVSNKAYEDAEAKAKYEAEAAFFANLKLSDFNIIDTLGVGGFGRVELVQLKSEESKTFAMKILKKRHIVDTRQQEHIRSEKQIMQGAHSDFIVRLYRTFKDSKYLYMLMEACLGGELWTILRDRGSFEDSTTRFYTACVVEAFAYLHSKGIIYRDLKPENLILDHRGYAKLVDFGFAKKIGFGKKTWTFCGTPEYVAPEIILNKGHDISADYWSLGILMYELLTGSPPFSGPDPMKTYNIILRGIDMIEFPKKIAKNAANLIKKLCRDNPSERLGNLKNGVKDIQKHKWFEGFNWEGLRKGTLTPPIIPSVASPTDTSNFDSFPEDNDEPPPDDNSGWDIDF,Km,[6],50 µM
same,Km,[7],5 µM
rat Rho-dependent protein kinase ROCKII[1-543] (protein) MSRPPPTGKMPGAPEAAAGDGAGAGRQRKLEALIRDPRSPINVESLLDGLNSLVLDLDFPALRKNKNIDNFLNRYEKIVKKIRGLQMKAEDYDVVKVIGRGAFGEVQLVRHKASQKVYAMKLLSKFEMIKRSDSAFFWEERDIMAFANSPWVVQLFCAFQDDRYLYMVMEYMPGGDLVNLMSNYDVPEKWAKFYTAEVVLALDAIHSMGLIHRDVKPDNMLLDKHGHLKLADFGTCMKMDETGMVHCDTAVGTPDYISPEVLKSQGGDGYYGRECDWWSVGVFLFEMLVGDTPFYADSLVGTYSKIMDHKNSLCFPEDTEISKHAKNLICAFLTDREVRLGRNGVEEIKSASFFKNDQWNWDNIRETAAPVVPELSSDIDSSNFDDIEDDKGDVETFPIPKAFVGNQLPFIGFTYFRENLLLSDSPPCRENDAIQTRKSEESQEIQKKLYALEEHLSSEVQAKEELEQKCKSINTRLEKTAKELEEEITFRKNVESTLRQLEREKALLQHKNAEYQRKADHEADKKRNLENDVNSLKDQLEDL,Km,[6],> 100 µM
same,Km,[7],5 µM
MAPKAP-K3 (protein) MDGETAEEQGGPVPPPVAPGGPGLGGAPGGRREPKKYAVTDDYQLSKQVLGLGVNGKVLECFHRRTGQKCALKLLYDSPKARQEVDHHWQASGGPHIVCILDVYENMHHGKRCLLIIMECMEGGELFSRIQERGDQAFTEREAAEIMRDIGTAIQFLHSHNIAHRDVKPENLLYTSKEKDAVLKLTDFGFAKETTQNALQTPCYTPYYVAPEVLGPEKYDKSCDMWSLGVIMYILLCGFPPFYSNTGQAISPGMKRRIRLGQYGFPNPEWSEVSEDAKQLIRLLLKTDPTERLTITQFMNHPWINQSMVVPQTPLHTARVLQEDKDHWDEVKEEMTSALATMRVDYDQVKIKDLKTSNNRLLNKRRKKQAGSSSASQGCNNQ,Km,[2],30 µM
same,Km,[8],18 µM
p38 regulated/activated kinase (PRAK) (protein) MSEESDMDKAIKETSILEEYSINWTQKLGAGISGPVRVCVKKSTQERFALKILLDRPKARNEVRLHMMCATHPNIVQIIEVFANSVQFPHESSPRARLLIVMEMMEGGELFHRISQHRHFTEKQASQVTKQIALALRHCHLLNIAHRDLKPENLLFKDNSLDAPVKLCDFGFAKIDQGDLMTPQFTPYYVAPQVLEAQRRHQKEKSGIIPTSPTPYTYNKSCDLWSLGVIIYVMLCGYPPFYSKHHSRTIPKDMRRKIMTGSFEFPEEEWSQISEMAKDVVRKLLKVKPEERLTIEGVLDHPWLNSTEALDNVLPSAQLMMDKAVVAGIQQAHAEQLANMRIQDLKVSLKPLHSVNNPILRKRKLLGTKPKDSVYIHDHENGAEDSNVALEKLRDVIAQCILPQAGKGENEDEKLNEVMQEAWKYNRECKLLRDTLQSFSWNGRGFTDKVDRLKLAEIVKQVIEEQTTSHESQ,Km,[9],> 100 µM
same,Km,[2],40 µM
Checkpoint Kinase 1 (CHK1) (protein) MAVPFVEDWDLVQTLGEGAYGEVQLAVNRVTEEAVAVKIVDMKRAVDCPENIKKEICINKMLNHENVVKFYGHRREGNIQYLFLEYCSGGELFDRIEPDIGMPEPDAQRFFHQLMAGVVYLHGIGITHRDIKPENLLLDERDNLKISDFGLATVFRYNNRERLLNKMCGTLPYVAPELLKRREFHAEPVDVWSCGIVLTAMLAGELPWDQPSDSCQEYSDWKEKKTYLNPWKKIDSAPLALLHKILVENPSARITIPDIKKDRWYNKPLKKGAKRPRVTSGGVSESPSGFSKHIQSNLDFSPVNSASSEENVKYSSSQPEPRTGLSLWDTSPSYIDKLVQGISFSQPTCPDHMLLNSQLLGTPGSSQNPWQRLVKRMTRFFTKLDADKSYQCLKETCEKLGYQWKKSCMNQVTISTTDRRNNKLIFKVNLLEMDDKILVDFRLSKGDGLEFKRHFLKIKGKLIDIVSSQKIWLPAT,Km,[2],5 µM
same,Km,[10],5 µM
